Reference: PMC5778036

Molecular target: CCR5 expressed on the surface of pancreatic cancer cells (human (endogenous in AsPC-1, BxPC-3, MIA PaCa-2)) (UniProt P51681)
UniProt P51681, sequence (P51681 whole entry): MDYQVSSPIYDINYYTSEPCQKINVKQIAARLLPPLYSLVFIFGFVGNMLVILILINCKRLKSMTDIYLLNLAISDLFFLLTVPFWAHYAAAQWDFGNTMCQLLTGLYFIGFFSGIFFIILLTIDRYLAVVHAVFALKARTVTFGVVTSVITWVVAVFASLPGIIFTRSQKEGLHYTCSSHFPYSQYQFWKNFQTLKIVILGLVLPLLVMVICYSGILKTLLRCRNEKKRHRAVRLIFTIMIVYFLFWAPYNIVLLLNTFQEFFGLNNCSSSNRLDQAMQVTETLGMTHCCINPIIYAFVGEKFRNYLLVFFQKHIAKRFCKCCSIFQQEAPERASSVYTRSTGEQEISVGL

CCR5 mRNA (qRT-PCR) in AsPC-1 cells in presence of CCL5, fold against untreated; decreased by maraviroc: 11 fold | CCR5 mRNA (qRT-PCR) in BxPC-3 cells in presence of CCL5, fold against untreated; decreased by maraviroc: 7 fold | CCR5 mRNA (qRT-PCR) in MIA PaCa-2 cells in presence of CCL5, fold against untreated; decreased by maraviroc: 4 fold
Substance: CCL5 (CC chemokine ligand 5) recombinant protein (from UniProt P13501 24-91)
